Target: the molecule itself
Test: SEC; Superdex 200 10/300, 50 mM Tris-HCl pH 8.0, 150 mM NaCl; tag removed with thrombin; oligomeric state estimated from the molecular mass

B1: XcSOD, manganese containing superoxide dismutase from Xanthomonas citri subsp. citri (enzyme)
chain: MAYTLPQLPYAYDALEPNIDAQTMEIHHTKHHQTYINNVNAALEGTEYADLPIEELVSKLKSLPENLQGPVRNNGGGHANHSLFWTVLSPNGGGEPKGEVAKAIDKDLGGFEKFKEAFTKAAVSRFGSGWAWLSVTPDKKLVVESTANQDSPLFEGNTPILGLDVWEHAYYLKYQNRRPEYIGAFYNAVNWEEVERRYHAAIA
notes: Cloned in pET28a; His-tag removed with thrombin before size exclusion chromatography and crystallization; also called MnSOD; product of the sodM gene (XAC2386); source: E. coli BL21 (DE3), purified (Ni-NTA, thrombin, size exclusion chromatography); not shown: His-tag, N-terminal, cleaved
  stoichiometry N: 2

Reference: article PMC6322740, “Structural characterization of a pathogenicity-related superoxide dismutase codified by a probably essential gene in Xanthomonas citri subsp. citri” (PLoS ONE, 2019)
